Assay results reported in patent US20140248254.

Biological target: G-Actin protein

B1: Mus AChE protein (AChE 1-548AA, mouse) (protein)
chain: EGREDPQLLVRVRGGQLRGIRLKAPGGPVSAFLGIPFAEPPVGSRRFMPPEPKRPWSGVLDATTFQNVCYQYVDTLYPGFEGTEMWNPNRELSEDCLYLNVWTPYPRPASPTPVLIWIYGGGFYSGAASLDVYDGRFLAQVEGAVLVSMNYRVGTFGFLALPGSREAPGNVGLLDQRLALQWVQENIAAFGGDPMSVTLFGESAGAASVGMHILSLPSRSLFHRAVLQSGTPNGPWATVSAGEARRRATLLARLVGCPPGGAGGNDTELIACLRTRPAQDLVDHEWHVLPQESIFRFSFVPVVDGDFLSDTPEALINTGDFQDLQVLVGVVKDEGSYFLVYGVPGFSKDNESLISRAQFLAGVRIGVPQASDLAAEAVVLHYTDWLHPEDPTHLRDAMSAVVGDHNVVCPVAQLAGRLAAQGARVYAYIFEHRASTLTWPLWMGVPHGYEIEFIFGLPLDPSLNYTTEERIFAQRLMKYWTNFARTGDPNDPRDSKSPQWPPYTTAAQQYVSLNLKP
Q: B1 was tested. Which “cleaving of plasmid DNA by AChE (agarose gel) after pre-incubation with G-Actin” value did it give?
A: it almost had no effect on cleaving ability of AChE on DNA
